Patent US20250057980

Biological target: T1, Bxb1 integrase (Mycobacterium phage Bxb1?) (UniProt Q9B086)
T1 sequence: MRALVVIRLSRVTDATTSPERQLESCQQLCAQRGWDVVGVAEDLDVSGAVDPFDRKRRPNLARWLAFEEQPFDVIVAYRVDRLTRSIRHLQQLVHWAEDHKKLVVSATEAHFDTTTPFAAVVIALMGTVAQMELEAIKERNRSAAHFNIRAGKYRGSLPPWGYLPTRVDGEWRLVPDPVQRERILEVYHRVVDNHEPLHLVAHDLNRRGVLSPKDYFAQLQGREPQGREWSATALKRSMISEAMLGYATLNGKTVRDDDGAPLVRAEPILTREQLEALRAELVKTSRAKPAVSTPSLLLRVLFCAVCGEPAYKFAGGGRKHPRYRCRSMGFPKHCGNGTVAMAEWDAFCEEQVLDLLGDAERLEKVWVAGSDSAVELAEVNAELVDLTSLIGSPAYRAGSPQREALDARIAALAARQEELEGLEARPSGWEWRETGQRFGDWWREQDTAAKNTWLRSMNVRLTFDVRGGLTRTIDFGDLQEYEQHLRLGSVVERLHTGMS
Assay: cell_activity
Settings: in vivo mouse liver, 1E11 vg Bxb1 AdV, 1E12 vg AAV; about 7% at 3E10 vg

Substance: AttP GT/GA dual site in Rosa26 of AttP mice with 38 bp GT AttB AAV donor
- activity (% integration): 11
